Target: T1, CD3 epsilon homodimer protein (UniProt P07766 23-126)
T1 construct: Immobilized on Sensor chip CM4 by amine coupling; construct not described; also called CD3 (CD3 epsilon)
Test: SPR Biacore T200, CD3 epsilon homodimer on CM4 chip, antibody as analyte;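 also: Amine-coupled CD3 epsilon homodimer, run at 25 °C in HBS-EP+ buffer, ratio is bound amount of each single-residue H chain variant over that of the parent antibody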

T1 sequence (P07766 23-126): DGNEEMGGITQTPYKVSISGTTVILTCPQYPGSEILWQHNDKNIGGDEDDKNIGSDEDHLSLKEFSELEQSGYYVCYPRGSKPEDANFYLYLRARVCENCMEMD

Binder | ratio of amounts bound (Y/X vs CE115HA000)
CE115HA000 N53Y one-arm antibody (antibody, human IgG1, kappa, L234A L235A, N297A, name in Kabat numbering, one-arm antibody (one Fab)) heavy: QVQLVESGGGVVQPGRSLRLSCAASGFTFSNAWMHWVRQAPGKGLEWVAQIKAKSYNYATYYAESVKGRFTISRDDSKNSLYLQMNSLKTEDTAVYYCRYVHYGAYYGVDAWGQGTTVTVSSASTKGPSVFPLAPSSKSTSGGTAALGCLVKDYFPEPVTVSWNSGALTSGVHTFPAVLQSSGLYSLSSVVTVPSSSLGTQTYICNVNHKPSNTKVDKKVEPKSCDKTHTCPPCPAPEAAGGPSVFLFPPKPKDTLMISRTPEVTCVVVDVSHEDPEVKFNWYVDGVEVHNAKTKPREEQYASTYRVVSVLTVLHQDWLNGKEYKCKVSNKALPAPIEKTISKAKGQPREPQVYTLPPSRCELTKNQVSLSCAVKGFYPSDIAVEWESNGQPENNYKTTPPVLDSDGSFFLVSKLTVDKSRWQQGNVFSCSVMHEALHNHYTQKSLSLSPDYKDDDDK EPKSSDKTHTCPPCPAPELLGGPSVFLFPPKPKDTLMISRTPEVTCVVVDVSHEDPEVKFNWYVDGVEVHNAKTKPREEQYNSTYRVVSVLTVLHQDWLNGKEYKCKVSNKALPAPIEKTISKAKGQPREPQVCTLPPSRDELTKNQVSLWCLVKGFYPSDIAVEWESNGQPENNYKTTPPVLDSDGSFFLYSKLTVDKSRWQQGNVFSCSVMHEALHNRYTQKSLSLSP light: DIVMTQSPLSLPVTPGEPASISCRSSQSLVHSNRNTYLHWYQQKPGQAPRLLIYKVSNRFSGVPDRFSGSGSGTDFTLKISRVEAEDVGVYYCGQGTQVPYTFGQGTKLEIKRTVAAPSVFIFPPSDEQLKSGTASVVCLLNNFYPREAKVQWKVDNALQSGNSQESVTEQDSKDSTYSLSSTLTLSKADYEKHKVYACEVTHQGLSSPVTKSFNRGEC | 0.63
CE115HA000 N54L one-arm antibody (antibody, human IgG1, kappa, L234A L235A, N297A, name in Kabat numbering, one-arm antibody (one Fab)) heavy: QVQLVESGGGVVQPGRSLRLSCAASGFTFSNAWMHWVRQAPGKGLEWVAQIKAKSNLYATYYAESVKGRFTISRDDSKNSLYLQMNSLKTEDTAVYYCRYVHYGAYYGVDAWGQGTTVTVSSASTKGPSVFPLAPSSKSTSGGTAALGCLVKDYFPEPVTVSWNSGALTSGVHTFPAVLQSSGLYSLSSVVTVPSSSLGTQTYICNVNHKPSNTKVDKKVEPKSCDKTHTCPPCPAPEAAGGPSVFLFPPKPKDTLMISRTPEVTCVVVDVSHEDPEVKFNWYVDGVEVHNAKTKPREEQYASTYRVVSVLTVLHQDWLNGKEYKCKVSNKALPAPIEKTISKAKGQPREPQVYTLPPSRCELTKNQVSLSCAVKGFYPSDIAVEWESNGQPENNYKTTPPVLDSDGSFFLVSKLTVDKSRWQQGNVFSCSVMHEALHNHYTQKSLSLSPDYKDDDDK EPKSSDKTHTCPPCPAPELLGGPSVFLFPPKPKDTLMISRTPEVTCVVVDVSHEDPEVKFNWYVDGVEVHNAKTKPREEQYNSTYRVVSVLTVLHQDWLNGKEYKCKVSNKALPAPIEKTISKAKGQPREPQVCTLPPSRDELTKNQVSLWCLVKGFYPSDIAVEWESNGQPENNYKTTPPVLDSDGSFFLYSKLTVDKSRWQQGNVFSCSVMHEALHNRYTQKSLSLSP light: DIVMTQSPLSLPVTPGEPASISCRSSQSLVHSNRNTYLHWYQQKPGQAPRLLIYKVSNRFSGVPDRFSGSGSGTDFTLKISRVEAEDVGVYYCGQGTQVPYTFGQGTKLEIKRTVAAPSVFIFPPSDEQLKSGTASVVCLLNNFYPREAKVQWKVDNALQSGNSQESVTEQDSKDSTYSLSSTLTLSKADYEKHKVYACEVTHQGLSSPVTKSFNRGEC | 0.94
CE115HA000 N54Q one-arm antibody (antibody, human IgG1, kappa, L234A L235A, N297A, name in Kabat numbering, one-arm antibody (one Fab)) heavy: QVQLVESGGGVVQPGRSLRLSCAASGFTFSNAWMHWVRQAPGKGLEWVAQIKAKSNQYATYYAESVKGRFTISRDDSKNSLYLQMNSLKTEDTAVYYCRYVHYGAYYGVDAWGQGTTVTVSSASTKGPSVFPLAPSSKSTSGGTAALGCLVKDYFPEPVTVSWNSGALTSGVHTFPAVLQSSGLYSLSSVVTVPSSSLGTQTYICNVNHKPSNTKVDKKVEPKSCDKTHTCPPCPAPEAAGGPSVFLFPPKPKDTLMISRTPEVTCVVVDVSHEDPEVKFNWYVDGVEVHNAKTKPREEQYASTYRVVSVLTVLHQDWLNGKEYKCKVSNKALPAPIEKTISKAKGQPREPQVYTLPPSRCELTKNQVSLSCAVKGFYPSDIAVEWESNGQPENNYKTTPPVLDSDGSFFLVSKLTVDKSRWQQGNVFSCSVMHEALHNHYTQKSLSLSPDYKDDDDK EPKSSDKTHTCPPCPAPELLGGPSVFLFPPKPKDTLMISRTPEVTCVVVDVSHEDPEVKFNWYVDGVEVHNAKTKPREEQYNSTYRVVSVLTVLHQDWLNGKEYKCKVSNKALPAPIEKTISKAKGQPREPQVCTLPPSRDELTKNQVSLWCLVKGFYPSDIAVEWESNGQPENNYKTTPPVLDSDGSFFLYSKLTVDKSRWQQGNVFSCSVMHEALHNRYTQKSLSLSP light: DIVMTQSPLSLPVTPGEPASISCRSSQSLVHSNRNTYLHWYQQKPGQAPRLLIYKVSNRFSGVPDRFSGSGSGTDFTLKISRVEAEDVGVYYCGQGTQVPYTFGQGTKLEIKRTVAAPSVFIFPPSDEQLKSGTASVVCLLNNFYPREAKVQWKVDNALQSGNSQESVTEQDSKDSTYSLSSTLTLSKADYEKHKVYACEVTHQGLSSPVTKSFNRGEC | 0.84
CE115HA000 N54S one-arm antibody (antibody, human IgG1, kappa, L234A L235A, N297A, name in Kabat numbering, one-arm antibody (one Fab)) heavy: QVQLVESGGGVVQPGRSLRLSCAASGFTFSNAWMHWVRQAPGKGLEWVAQIKAKSNSYATYYAESVKGRFTISRDDSKNSLYLQMNSLKTEDTAVYYCRYVHYGAYYGVDAWGQGTTVTVSSASTKGPSVFPLAPSSKSTSGGTAALGCLVKDYFPEPVTVSWNSGALTSGVHTFPAVLQSSGLYSLSSVVTVPSSSLGTQTYICNVNHKPSNTKVDKKVEPKSCDKTHTCPPCPAPEAAGGPSVFLFPPKPKDTLMISRTPEVTCVVVDVSHEDPEVKFNWYVDGVEVHNAKTKPREEQYASTYRVVSVLTVLHQDWLNGKEYKCKVSNKALPAPIEKTISKAKGQPREPQVYTLPPSRCELTKNQVSLSCAVKGFYPSDIAVEWESNGQPENNYKTTPPVLDSDGSFFLVSKLTVDKSRWQQGNVFSCSVMHEALHNHYTQKSLSLSPDYKDDDDK EPKSSDKTHTCPPCPAPELLGGPSVFLFPPKPKDTLMISRTPEVTCVVVDVSHEDPEVKFNWYVDGVEVHNAKTKPREEQYNSTYRVVSVLTVLHQDWLNGKEYKCKVSNKALPAPIEKTISKAKGQPREPQVCTLPPSRDELTKNQVSLWCLVKGFYPSDIAVEWESNGQPENNYKTTPPVLDSDGSFFLYSKLTVDKSRWQQGNVFSCSVMHEALHNRYTQKSLSLSP light: DIVMTQSPLSLPVTPGEPASISCRSSQSLVHSNRNTYLHWYQQKPGQAPRLLIYKVSNRFSGVPDRFSGSGSGTDFTLKISRVEAEDVGVYYCGQGTQVPYTFGQGTKLEIKRTVAAPSVFIFPPSDEQLKSGTASVVCLLNNFYPREAKVQWKVDNALQSGNSQESVTEQDSKDSTYSLSSTLTLSKADYEKHKVYACEVTHQGLSSPVTKSFNRGEC | 0.84
